Data: the supplement of paper PMC12042874
± gives the uncertainty stated by the source.

Experiment: amyloid nucleation score (Sup35N fusion, yeast selection) (log enrichment); library NNK3; higher = more nucleation; inactive = no reads after selection
How it was run: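 In psi-negative yeast, Sup35N fusions carrying peptides of 20 random codons were induced with 100 μM copper sulfate for 24 hours. The cells then grew 7 days at 30°C on medium lacking adenine and uracil, and plasmid inserts from input and output were Illumina-sequenced, excluding sequences with under 100 input reads. Nucleation score is the DiMSum log enrichment of output over input reads, centred on the mode score of non-aggregating sequences.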
With SHSVYIFFVSTFVGSLWSLP the amyloid nucleation score was “inactive”.
In the case of NNVFERQFRHLNSVDGPIDN, the amyloid nucleation score is reported as “inactive”.
Work on AWVHLPGQESGYYCCFMNEM yielded an amyloid nucleation score of 1.63 ± 0.12.
In the case of SFYIVVRWMYIRFVDQYLIY, the amyloid nucleation score is reported as “inactive”.
In the case of TLWYSYHINVPYCL, the amyloid nucleation score is reported as “inactive”.
In the case of EFQNISWYTKLEGEYCGEMV, the amyloid nucleation score is reported as “inactive”.
In the case of NAVSDTGRKRECFRADRFLS, the amyloid nucleation score is reported as “inactive”.
For MLHASV, the amyloid nucleation score was “inactive”.
In the case of NYTVLYGNSLSFFRSHLCRV, the amyloid nucleation score is reported as “inactive”.
Substance TRNCGRSGYRL has an amyloid nucleation score of 1.13 ± 0.089.
With AYWCG the amyloid nucleation score was “inactive”.
With WWRDGDIRCKTSLNLGKRSF the amyloid nucleation score was “inactive”.
In the case of YLSPVKRRYD, the amyloid nucleation score is reported as “inactive”.
For SFYRMRVIHSLDYAKVKSTL, the amyloid nucleation score was 0.772 ± 0.2.
With EVVITLANAEGPAEQEF the amyloid nucleation score was “inactive”.
For AAPMS, the amyloid nucleation score was “inactive”.
With ENTCYRVGALIAAFTSFKLW the amyloid nucleation score was “inactive”.
For GISFFIMFILVPLFRKGVKV, the amyloid nucleation score was “inactive”.
For DYYTVCQAWIYIGFAILKW, the amyloid nucleation score was “inactive”.
With FVSMRIYGGLRRWHHEYLVV the amyloid nucleation score was “inactive”.
With ILCAFTRVWCYTNGPYESGR the amyloid nucleation score was 2.72 ± 0.053.
With NSHLSKNGQWIPLSAPATTT the amyloid nucleation score was “inactive”.
In the case of AFNHCETDRLTCL, the amyloid nucleation score is reported as “inactive”.
With YCTRNTCEIVGCILCGGLLS the amyloid nucleation score was 2.45 ± 0.086.
For NVIMVFVLCCFWCEGTQKHV, the amyloid nucleation score was 1.83 ± 0.056.
For VVDCLFLSEPCYVGFRWVIE, the amyloid nucleation score was “inactive”.
With TPYILLG the amyloid nucleation score was “inactive”.
With GVHHDCDYCRYLDDDVKLWW the amyloid nucleation score was “inactive”.
For SFIIVILYGDHALYFTYEAV, the amyloid nucleation score was “inactive”.
For SPFLCLLLDNEGKVLKVSYK, the amyloid nucleation score was “inactive”.
For ESFPEFVEVGICR, the amyloid nucleation score was “inactive”.
In the case of QVFHFGCSEDARCVCRVHM, the amyloid nucleation score is reported as “inactive”.
For SVKNWPNVN, the amyloid nucleation score was “inactive”.
With RAGATTFGVMVYKYDKFRQD the amyloid nucleation score was “inactive”.
In the case of HPVLRIRLLREKMMRFS, the amyloid nucleation score is reported as “inactive”.
With VGLFRESPWEV the amyloid nucleation score was “inactive”.
For SFAGYRQIGRQGVWVIQVRH, the amyloid nucleation score was “inactive”.
In the case of SNGLGLSLGNESANKEA, the amyloid nucleation score is reported as “inactive”.
Substance AWRKPCWGRVNYFLYIVGAG has an amyloid nucleation score of 2.33 ± 0.088.
For TQFISLSGGRTHLSGFLVFG, the amyloid nucleation score was 0.957 ± 0.14.
RRTWGSMYTKVLSISFLGPG showed an amyloid nucleation score of 1.48 ± 0.1.
With LYLTSCDIYGAGTIGRWVAV the amyloid nucleation score was “inactive”.
With PVMSS the amyloid nucleation score was “inactive”.
For QDYGYFNTYQFVRKWSSISL, the amyloid nucleation score was “inactive”.
In the case of NLLSLVFIRWGNYRRFKMFR, the amyloid nucleation score is reported as 0.77 ± 0.22.
Work on NCICLSGHFGHL yielded an amyloid nucleation score of 2.24 ± 0.091.
In the case of CVGQAPGVSLGFQTYQLILW, the amyloid nucleation score is reported as “inactive”.
For SLKCIRSVLNPWAGAALYPS, the amyloid nucleation score was “inactive”.
With TRLTL the amyloid nucleation score was “inactive”.
Work on RARLMITYYLTDQASDNRYV yielded an amyloid nucleation score of 0.799 ± 0.28.
In the case of YRLAN, the amyloid nucleation score is reported as “inactive”.
For FGWAWPFFTKVHHTSTV, the amyloid nucleation score was “inactive”.
With RLDGSMSGCFSTFWNWNIVR the amyloid nucleation score was “inactive”.
With TCAIPHLKCSFLLYFGQYGC the amyloid nucleation score was “inactive”.
For VVTVGVMT, the amyloid nucleation score was “inactive”.
In the case of GFHELRLH, the amyloid nucleation score is reported as “inactive”.
With SFVVN the amyloid nucleation score was “inactive”.
With LDVSLVVVMPIGLRTEWMSG the amyloid nucleation score was “inactive”.
With LEQYEKLRGSPKVNRRMCNQ the amyloid nucleation score was “inactive”.
With WSDHMMRALERLPECINKLL the amyloid nucleation score was “inactive”.
In the case of LLVAYDQIFNF, the amyloid nucleation score is reported as “inactive”.
In the case of TMHKGLVVMF, the amyloid nucleation score is reported as “inactive”.
For ISFSSES, the amyloid nucleation score was “inactive”.
In the case of MWHLTF, the amyloid nucleation score is reported as “inactive”.
For ARLRVVIDRCLYRGLSQLQP, the amyloid nucleation score was “inactive”.
Work on KVIDSLVVSRLLTCASRHIR yielded an amyloid nucleation score of 1.32 ± 0.077.
Work on LCHICDAVTSYLLP yielded an amyloid nucleation score of -0.406 ± 1.
For IDRGNSNRPCPDFTDCFYGR, the amyloid nucleation score was “inactive”.
With TQGYVFKELAGVSRYTEA the amyloid nucleation score was “inactive”.
In the case of YYYGKWYLYEKHSVVFRGCR, the amyloid nucleation score is reported as “inactive”.
With FVFRHYSRPDIFQDGKKSAN the amyloid nucleation score was 1.08 ± 0.15.
Work on VSLLMRASGSCLNMQVYSGF yielded an amyloid nucleation score of 1.57 ± 0.11.
With NFFRDSGRMCHPKGIGDRWT the amyloid nucleation score was “inactive”.
In the case of NRFWLLCDFLFVHTCV, the amyloid nucleation score is reported as 0.897 ± 0.2.
In the case of SSVDSSFANCCVISKRNHML, the amyloid nucleation score is reported as “inactive”.
In the case of EHGMVENRQRRFCLDWWDGM, the amyloid nucleation score is reported as “inactive”.
For LSNFITTLSTWITLSI, the amyloid nucleation score was “inactive”.
With DFCLCNIRVFPEYRSHYGFG the amyloid nucleation score was “inactive”.
For PVGKMDLRIDKNSWSYLVLD, the amyloid nucleation score was “inactive”.
